Data from patent US9695426B2, “Biofuel production by recombinant microorganisms” (The Regents of the University of California, priority 2007, dated 2017).
Changes are numbered by the printed parent chain. Names may count otherwise.

Columns and labels:
[1] = tested on: wild-type E. coli strain (JCL16); experiment: isobutanol tolerance of E. coli
Excerpt: Non-native hosts such as E. coli lack tolerance to high alcohols. Isobutanol is as toxic as 1-butanol to microorganisms, and the native 1-butanol producers can tolerate 1-butanol concentration up to about 2%. To show the potential for improving tolerance, in vitro evolution by the sequential transfer of cultures was used to enrich for strains with mutations which increase isobutanol tolerance. […] Other strategies such as gTME can be used for further improvement of tolerance.

KS145 [2] = experiment: 1-Propanol and 1-butanol production with the selected CimA mutants (citramalate pathway); type: cell-based, E. coli; details: 30° C. for 40 h
Method: Medium and cultivation for 1-propanol and 1-butanol production. M9 medium containing 36 g/L glucose, 5 g/L yeast extract, 100 μg/ml ampicillin, 30 μg/ml kanamycin and 1000th dilution of Trace Metal Mix A5 (2.86 g H3BO3, 1.81 g MnCl2.4H2O, 0.222 g ZnSO4.7H2O, 0.39 g Na2MoO4.2H2O, 0.079 g CuSO4.5H2O, 49.4 mg Co(NO3)2.6H2O per liter water) was used for cell growth. Preculture in test tubes containing 3 ml of medium was performed at 37° C. overnight on a rotary shaker (250 rpm). Overnight culture was diluted 1:100 into 20 ml of fresh medium in a 250 ml screw cap conical flask. Cells were grown at 37° C. for 3 hr, followed by adding 0.1 mM IPTG. Cultivation was performed at 30° C. on a rotary shaker (250 rpm). Gas chromatography-flame ionization detector and high-performance liquid chromatography analyses were performed.
The citramalate pathway was then used to enhance the production of 1-propanol and 1-butanol (FIG. 13). An E. coli strain (KS145) auxotrophic for L-isoleucine, leucine, and valine (ΔilvI and ΔilvB). was transformed with pSA63 (or other plasmids containing variants of cimA) and pSA55 (PLlacO1::kivd-ADH2). The deletions of ilvI and ilvB (FIG. 13) were introduced for two reasons. First, the deletions eliminated the native substrate, 2-ketoisovalerate, for the leuABCD pathway, thus reducing the competitive substrate inhibition. Second, these deletions eliminated the production of 2-keto-3-methyl-valerate and 2-keto-4-methyl-pentanoate, which are competing substrates for Kivd. The strain expressing the wild-type cimA gene (KS145/pSA63/pSA55) produced 302 mg/liter 1-propanol and 18 mg/liter 1-butanol after 40 h (FIG. 60). KS145 with pSA55 only, where Kivd utilizes endogenous 2-keto acids, produced 40 mg/liter 1-propanol and 10 mg/liter 1-butanol under the same condition. KS145 without pSA55 and pSA63 produced neither 1-propanol nor 1-butanol (FIG. 60). Note that the yeast extract was added to the medium to boost the cell density.
1-Propanol and 1-butanol production was tested with the selected CimA variants in KS145 by replacing pSA63 with corresponding plasmids (Table 19) containing various cimA mutants. […] The production of 1-propanol and 1-butanol from the strain with CimA2 increased 3.9- and 4.3-fold, respectively, compared to the strain with the wild-type CimA.

KS145 [3] = experiment: as above; type: cell-based, E. coli; details: ΔilvI ΔilvB strain with pSA63 and pSA55, after 64 hr
JCL260 [4] = experiment: α-keto acid production with IPMS variants; type: cell-based, E. coli
Method: All α-keto acid experiments were done under oxygen ‘rich’ conditions unless otherwise noted. For oxygen rich experiments, 10 mL cultures in 250 mL baffled shake flasks were inoculated 1% from 3 mL overnight cultures in LB. For oxygen poor experiments, 10 mL cultures were inoculated in 125 mL screw caps as previously described. All cultures were grown at 37° C. for 4 hours and induced with 1 mM IPTG and harvested after 18 hrs of growth at 30° C.
For other secreted metabolites, filtered supernatant was applied (20 ul) to an Agilent 1100 HPLC equipped with an auto-sampler (Agilent Technologies) and a BioRad (Biorad Laboratories, Hercules, Calif.) Aminex HPX87 column (5 mM H2SO4, 0.6 ml/min, column temperature at 65° C.). Glucose was detected with a refractive index detector, while organic acids were detected using a photodiode array detector at 210 nm. Concentrations were determined by extrapolation from standard curves.
In order to investigate this hypothesis, the production of the α-keto acid precursors, the substrates for kivd, to isobutanol and 3-methyl-1-butanol were examined. […] In hopes of increasing the KIC pool, the expression level of leuA was increased by changing the RBS from its native sequence to a more consensus sequence.
Isopropylmalate synthase (IPMS) catalyzes the condensation of KIV with acetyl-CoA. […] To relieve the feedback inhibition of the leuA gene product, two strategies were employed. A feedback insensitive mutant of IPMS (IPMS (G462D)) was employed. Second, the final step in the L-leucine synthesis pathway was inactivated by deleting ilvE (branched-chain amino acid transferase) and tyrB (tyrosine aminotransferase), two isozymes responsible for converting α-ketoisocaproate into L-leucine.

JCL260 [5] = type: cell-based, E. coli; details: for 3-methyl-1-butanol final titer / isobutanol accumulation: ilvE+ tyrB+ background
Method: Final production experiments were conducted as previously described, except that 20 mL modified M9 media containing 5 g/L of glucose was used in a 250 mL screw cap flask.
Metabolite Detections. The produced alcohol compounds were quantified by a gas chromatograph (GC) equipped with flame ionization detector. The system consisted of model 5890A GC (Hewlett-Packard, Avondale, Pa.) and a model 7673A automatic injector, sampler and controller (Hewlett-Packard). Supernatant of culture broth ([…]) was injected in split injection mode (1:15 split ratio) using methanol as the internal standard.
The separation of alcohol compounds was carried out by A DB-WAX capillary column (30 m, 0.32 mm-i.d., 0.50 μm-film thickness) purchased from Agilent Technologies (Santa. Clara, Calif.). GC oven temperature was initially held at 40° C. for 5 min and raised with a gradient of 15° C./min until 120° C. It was then raised with a gradient 50° C./min until 230° C. and held for 4 min. Helium was used as the carrier gas with 9.3 psi inlet pressure. The injector and detector were maintained at 225° C. 0.5 ul supernatant of culture broth was injected in split injection mode with a 1:15 split ratio. Methanol was used as the internal standard.

[6] = KS145 with pSA55 and pSA63 (cimA-leuABCD) or its variations
[7] = KS145 with pSA55 and pSA63 variations

**Q.** Which “isobutanol concentration that inhibited the strain” value [1] does the source give for `CC(C)CO` [isobutanol] here?
**A.** 1.5%

**Q.** What about the “isobutanol concentration in the presence of which mutants grow” value ([1]; mutants after 5 rounds of culture transfers with increasing isobutanol concentrations) of the same molecule?
**A.** 2%

B1: WT: wild-type citramalate synthase CimA from M. jannaschii (SEQ ID NO:89) (protein, listed as Methanocaldococcus jannaschii)
chain: MMVRIFDTTLRDGEQTPGVSLTPNDKLEIAKKLDELGVDVIEAGSAITSKGEREGIKLITKEGLNAEICSFVRALPVDIDAALECDVDSVHLVVPTSPIHMKYKLRKTEDEVLETALKAVEYAKEHGLIVELSAEDATRSDVNFLIKLFNEGEKVGADRVCVCDTVGVLTPQKSQELFKKITENVNLPVSVHCHNDFGMATANTCSAVLGGAVQCHVTVNGIGERAGNASLEEVVAALKILYGYDTKIKMEKLYEVSRIVSRLMKLPVPPNKAIVGDNAFAHEAGIHVDGLIKNTETYEPIKPEMVGNRRRIILGKHSGRKALKYKLDLMGINVSDEQLNKIYERVKEFGDLGKYISDADLLAIVREVTGKLVEEKIKLDELTVVSGNKITPIASVKLHYKGEDITLIETAYGVGPVDAAINAVRKAISGVADIKLVEYRVEAIGGGTDALIEVVVKLRKGTEIVEVRKSDADIIRASVDAVMEGINMLLN
**Q.** Which results are given for B1?
**A.** Production of 1-Butanol (KS145 [2]; [6]): 18 mg/L; Production of 1-Propanol (KS145 [2]; [6]): 302 mg/L; 1-Butanol change (fold) relative to the strain containing wild-type CimA (KS145 [2]; [7]): 1 fold; 1-Propanol change (fold) relative to the strain containing wild-type CimA (KS145 [2]; [7]): 1 fold; 1-butanol produced (KS145 [3]): about 21 mg/L; 1-propanol produced (KS145 [3]): about 350 mg/L

B2: IPMS (G462D): feedback insensitive mutant of isopropylmalate synthase (leuA gene product) (protein, UniProt P09151 2-523, looked up, variant G462D)
2-isopropylmalate synthase: SQQVIIFDTTLRDGEQALQASLSVKEKLQIALALERMGVDVMEVGFPVSSPGDFESVQTIARQVKNSRVCALARCVEKDIDVAAESLKVAEAFRIHTFIATSPMHIATKLRSTLDEVIERAIYMVKRARNYTDDVEFSCEDAGRTPIADLARVVEAAINAGATTINIPDTVGYTMPFEFAGIISGLYERVPNIDKAIISVHTHDDLGLAVGNSLAAVHAGARQVEGAMNGIGERAGNCSLEEVIMAIKVRKDILNVHTAINHQEIWRTSQLVSQICNMPIPANKAIVGSGAFAHSSGIHQDGVLKNRENYEIMTPESIGLNQIQLNLTSRSGRAAVKHRMDEMGYKESEYNLDNLYDAFLKLADKKGQVFDYDLEALAFIGKQQEEPEHFRLDYFSVQSGSNDIATAAVKLACGEEVKAEAANGNGPVDAVYQAINRITEYNVELVKYSLTAKGHGKDALDQVDIVANYNGRRFHGVGLATDIVESSAKAMVHVLNNIWRAAEVEKELQRKAQHNENNKETV
**Q.** Which results are given for B2?
**A.** KIC final concentration (JCL260 [4]): 1.61 g/L; KIV accumulation (JCL260 [4]; JCL260 background, ilvE+ tyrB+): 0.17 g/L; KIC production (JCL260 [4]; ΔilvE background): 2.31 g/L; KIC production (JCL260 [4]; ΔilvE ΔtyrB background): 1.95 g/L; 3-methyl-1-butanol final titer (JCL260 [5]): 459 mg/L; isobutanol accumulation (JCL260 [5]): 15 mg/L

B3: WT IPMS: wild-type isopropylmalate synthase, the E. coli leuA gene product (protein, UniProt P09151 2-523, looked up)
2-isopropylmalate synthase: B2 2-isopropylmalate synthase with D461G
**Q.** With B3 as the molecule, how does the KIC production (JCL260 [4]; ΔilvE background) read?
**A.** 0.53 g/L

**Q.** What about the KIV final concentration (JCL260 [4]; ΔilvE background) of the same molecule?
**A.** 0.40 g/L

**Q.** What about the KIC production (JCL260 [4]; ΔilvE ΔtyrB background) of the same molecule?
**A.** 1.23 g/L

**Q.** What about the KIV final concentration (JCL260 [4]; ΔilvE ΔtyrB background) of the same molecule?
**A.** 0.37 g/L

**Q.** And the 3-methyl-1-butanol final titer (JCL260 [5])?
**A.** 308 mg/L

**Q.** And the isobutanol accumulation (JCL260 [5])?
**A.** 169 mg/L

**Q.** And the 3-methyl-1-butanol final concentration (JCL260 [5]; ΔilvE ΔtyrB strain)?
**A.** 553 mg/L

**Q.** What about the isobutanol (JCL260 [5]; ΔilvE ΔtyrB strain) of the same molecule?
**A.** 42 mg/L
